Source: the supplement of paper PMC12042874
± gives the uncertainty stated by the source.

Assay: amyloid nucleation score (Sup35N fusion, yeast selection) (log enrichment); library NNK2; higher = more nucleation; inactive = no reads after selection
Outline: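 Peptides of 20 random codons fused to Sup35N were expressed in psi-negative yeast, induced 24 hours with 100 μM copper sulfate, then grown 7 days at 30°C on medium lacking adenine and uracil. Input and output plasmid inserts were Illumina-sequenced. Nucleation score is the DiMSum log enrichment of output over input reads, centred on the mode score of non-aggregating sequences, excluding sequences with under 100 input reads. Random libraries had three technical output replicates.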

| Substance | amyloid nucleation score |
| --- | --- |
| RIVGDLICDVSSSQISTSHT | -0.291 ± 0.48 |
| RIWKWLLTQICFIRAQPLM | 0.49 ± 0.31 |
| RKATQIPMSVSMER | 1.45 ± 0.4 |
| RKCAPMDASSRHADSYPSQS | 1.24 ± 0.19 |
| RKKMGFF | inactive |
| RKLGNLLPPEY | 0.499 ± 0.35 |
| RKLIYSICKYVFALSVTIVG | -1.3 ± 0.32 |
| RKNVYFIFPIISSLYKV | 7.009 ± 0.049 |
| RKPMLFLRYF | inactive |
| RKPRFIACMTSPCLALC | 0.066 ± 0.5 |
| RKSYGRSWSSGNLYYNLHGD | -1.18 ± 1.1 |
| RKVLLVGCCPLVLKIVFCSV | 7.734 ± 0.048 |
| RKVLLVNVLGSDEDTHLTRV | -0.973 ± 0.76 |
| RLDWREVHWLVRKTLL | 0.648 ± 0.16 |
| RLDYNSSCQIFLFAGFMYLF | 3.23 ± 0.067 |
| RLFANASGVDMEGTGYNRSD | 0.359 ± 0.4 |
| RLFTWIFPTGNTGF | 8.831 ± 0.074 |
| RLIACIRIVSVVVNAVSLKG | 1.79 ± 0.42 |
| RLKGGFVEGPSGRVTCVRIT | 0.132 ± 0.38 |
| RLKVVLRYLASGHWKLVA | 1.31 ± 0.41 |
| RLKWKLEQNSSLLWGRYRTA | 1.24 ± 0.14 |
| RLKYHWGGFEA | 0.767 ± 0.4 |
| RLLAGIFLEEKFYPRPSDIL | 3.69 ± 0.13 |
| RLLWLPLHSFMGMDTPSGVY | 0.448 ± 0.6 |
| RLMHGRIRPLNSKWLTGLG | 1.11 ± 0.34 |

| Substance | amyloid nucleation score |
| --- | --- |
| RLMTVI | -0.229 ± 0.28 |
| RLNIGLLSVGYR | 1.76 ± 0.17 |
| RLPFYVW | inactive |
| RLQRVLS | -0.458 ± 0.42 |
| RLSCDTVFMMSFGIICSFFN | 4.418 ± 0.039 |
| RLWYSSSVLLV | 0.709 ± 0.36 |
| RMCMAIKERSY | 0.508 ± 0.38 |
| RMFIVHSCSTWLTNNGLNHM | 5.318 ± 0.036 |
| RMLCLTSG | -0.59 ± 0.63 |
| RMLGALFGMHVNYRAVSELF | 1.49 ± 0.12 |
| RMLGFD | -0.147 ± 1.1 |
| RMMVGALAGFMV | 0.578 ± 0.35 |
| RMPFHVFRIKFHFLLRVPIQ | 0.851 ± 0.52 |
| RMRQASEAKSLGGPIGRQGL | 1.2 ± 0.15 |
| RNALLCADLTPLAPLNLFCD | -0.636 ± 0.76 |
| RNFFPHGFWSLQTKYNVLFM | 5.684 ± 0.05 |
| RNFMVDRSGWQSKYVTHSLE | -0.324 ± 0.6 |
| RNGLRTLEQRRSKSVWEMSW | 0.969 ± 0.16 |
| RNILPLARDSVVFNDCYDSG | 0.545 ± 0.33 |
| RNIQYVAMEVCDFKFPVDGV | 0.223 ± 0.26 |
| RNLDFIA | 3.33 ± 0.068 |
| RNLGSCY | -0.08 ± 0.46 |
| RNRAENV | -0.36 ± 0.76 |
| RNSMGTFSRWYPIMY | -0.54 ± 0.48 |
| RNSSVGT | inactive |

| Substance | amyloid nucleation score |
| --- | --- |
| RNSYALNINEM | -0.4 ± 0.38 |
| RNTYRRGGLPFVAYNRTSVG | 0.125 ± 0.28 |
| RNWWGLSVYNSIYWCVMSRD | 4.835 ± 0.043 |
| RPKSKADYGWC | -0.119 ± 0.45 |
| RPNDMHTT | -0.064 ± 0.26 |
| RPRVVTQLFMYLNDCRGSPP | 6.693 ± 0.055 |
| RPSNKT | 0.761 ± 0.56 |
| RPVSSFVSASGSRSGLQSLK | 0.085 ± 0.8 |
| RQRVMHAHHCLLYLMVKHFI | -0.675 ± 1.1 |
| RQTGRLDFRTISRVKVDVIV | 1.92 ± 0.28 |
| RQYFNVLDCWGIGVFGHKG | 1.34 ± 0.3 |
| RRAGNIVLECSG | 3.68 ± 0.11 |
| RRAVLVSPGVVNQGISKHQG | 0.632 ± 0.25 |
| RRFEPKVRKKHQGLFLWYSV | 0.028 ± 0.25 |
| RRFVLARVPNNKCPQTIRLD | 0.733 ± 0.48 |
| RRHSNRICLQLWNHLGKRCR | 0.587 ± 0.29 |
| RRIFYHEYHMRDSIH | 1.7 ± 0.1 |
| RRLLGRLFLGTTSKLYVGDL | -0.147 ± 0.26 |
| RRRCYHTVSKFRWNIQSAVT | -0.337 ± 1 |
| RRWVG | 0.015 ± 0.45 |
| RSARDYSVLKSRILSSAGLG | 1.32 ± 0.39 |
| RSAYNY | -0.844 ± 0.4 |
| RSCYNFGKGLCVFMTLARLW | -0.82 ± 0.48 |
| RSELLRRKGILMYLLPGGGY | 0.009 ± 0.61 |
| RSHAT | 0.579 ± 0.33 |

| Substance | amyloid nucleation score |
| --- | --- |
| RSKLFVISNGRRMHVVLSST | 0.605 ± 0.51 |
| RSKLNIDV | 1.95 ± 0.14 |
| RSKMNRLMVLRSRVRWWYNE | 0.485 ± 0.32 |
| RSLGTRAFAVRFRTSCWINV | -0.317 ± 0.46 |
| RSLSNMCN | -1.24 ± 1 |
| RSLVDLMRGFDIV | 5.62 ± 0.062 |
| RSMISRAIYWQSWSTREERT | 1.86 ± 0.093 |
| RSNFIQDSLSYFDILAIRRG | inactive |
| RSQTSWLKDLWQRSLTSDCS | 4.62 ± 0.059 |
| RSRAQQHSQHNTVDITPTRS | 0.194 ± 0.32 |
| RSRDRGRCWFMMSRGMGGVA | 0.483 ± 0.56 |
| RSRSYHADWACTVVCLCYS | 4.24 ± 0.066 |
| RSSGLIGLGWKQI | -1.67 ± 0.75 |
| RSTTM | inactive |
| RSVLWSSMVGV | 1.39 ± 0.44 |
| RSYIRFGNYVHYDQLWLFGG | 3.04 ± 0.12 |
| RSYLVFYTRYLTFNGPSTKF | 7.79 ± 0.08 |
| RTEEQ | -0.254 ± 0.54 |
| RTFVVNQVEWDVYIWRSGSV | 0.004 ± 0.56 |
| RTFYFYGRHR | -1.11 ± 1.1 |
| RTGAMPSR | 0.518 ± 0.51 |
| RTHPTCSVCVKLYPLGTPRR | 2.38 ± 0.13 |
| RTMSNGSDVCFNNGMFHYLN | -1.04 ± 0.76 |
| RTPPISMGKHNFVYVSSVCG | -1.1 ± 0.36 |
| RTRLYIDQRRKAFYPGLGFS | 0.347 ± 0.55 |

| Substance | amyloid nucleation score |
| --- | --- |
| RTRRSSTGGRNEASGNRSAG | 2.87 ± 0.13 |
| RTSAPVLRYSVCLNAKYSLG | 0.683 ± 0.21 |
| RTSHSLRWMVRPYRRADPMR | 0.691 ± 0.54 |
| RTWSIFIASVKYVKV | -0.24 ± 0.74 |
| RVCPVSG | -0.068 ± 0.79 |
| RVDVLIE | 9.82 ± 0.048 |
| RVESDTDVIVQIMQWRGVFL | 0.334 ± 0.28 |
| RVFSLDWVIERMSVEFHSWG | inactive |
| RVGTLKTISFHSNLNSNKIR | -0.614 ± 0.33 |
| RVIILNTNDGSVEDMYVESQ | 3.98 ± 0.049 |
| RVIVGRYWQSTDVVYYIWNF | -1.59 ± 0.76 |
| RVKLACTRLCWLSADFDGNL | 4.04 ± 0.079 |
| RVLRLVSVLLFDVILSVE | 4.85 ± 0.085 |
| RVLSGRLTTNVDARGCELDR | 1.3 ± 0.29 |
| RVLVSS | 0.713 ± 0.8 |
| RVPGRDALSIASWLQSTGQV | 1.03 ± 0.21 |
| RVPIWRANIGKGSSIMPIFC | 0.009 ± 0.76 |
| RVRDYSYGGSQRLGGYMLG | -0.64 ± 0.61 |
| RVSMFKDLKYNGSYSWNSHG | -1.22 ± 0.41 |
| RVSTVFSLKTRRCEFLFQCV | 0.24 ± 0.35 |
| RVTHAFCSSINGTNANYPRR | 2.54 ± 0.097 |
| RVTSIVYLKLICFMGVSNLF | inactive |
| RVVQKKQLIV | 0.3 ± 0.49 |
| RVYDGAVVR | 0.547 ± 0.34 |
| RVYPFGRTRIFKTM | 1.33 ± 0.15 |

| Substance | amyloid nucleation score |
| --- | --- |
| RWDCGGGTNCSGENIWQGET | -0.083 ± 0.34 |
| RWGMRYIMDWY | 0.007 ± 1.1 |
| RWHFDYRVKQV | -0.058 ± 0.37 |
| RWIATGSGRPETHVILESSG | inactive |
| RWSFRLSTAIQGQPWSTPGD | 5.95 ± 0.06 |
| RYFINSMFLGWTPFVSVNLS | -0.107 ± 0.27 |
| RYGAMKLDTSKS | 0.11 ± 0.25 |
| RYGRDGDRIIYNVCDFFFSG | 6.475 ± 0.047 |
| RYIGGSLFFRYNIVGKRQGV | 3.81 ± 0.064 |
| RYNESEVSISRETRNVVLTF | 0.712 ± 0.26 |
| RYNLARSLLFHHNTCVFMSV | -0.491 ± 0.53 |
| RYQFSATPGVVRWKFEEYSD | -0.047 ± 0.46 |
| RYRSTLQYISVMGLDNT | -0.608 ± 0.54 |
| RYRWARLHGVLVHDWLLLIW | inactive |
| RYSATLYPTVPPDPLSAWAL | 3.8 ± 0.057 |
| RYSNKSDDYRGTSYLMYHVM | 0.232 ± 0.45 |
| RYTCRLFTDTYDSSVVLGAM | 1.17 ± 0.37 |
| SACIIVN | -0.012 ± 1.1 |
| SACRMNWEVGGIGLSVPLCG | 0.421 ± 0.2 |
| SAFTNRYHLPSERVGHWCPV | 0.224 ± 0.74 |
| SALCAYIQSLFNDCRTLDKW | -0.5 ± 0.44 |
| SAMQFRSFF | 0.94 ± 0.34 |
| SAPRNNVATLTEHLERLVLR | -0.767 ± 0.76 |
| SARFIIIWNWALSPRPRRCE | 7.561 ± 0.041 |
| SARHSRDR | 2.31 ± 0.066 |

| Substance | amyloid nucleation score |
| --- | --- |
| SASLSTRVNNTPLPALTRWV | 0.708 ± 0.62 |
| SASQDATPHGCGIGISLNTR | 2.79 ± 0.068 |
| SCEVVSRKL | 1.08 ± 0.22 |
| SCLIGLRLVLSLTAHDTETA | 3.97 ± 0.11 |
| SCLVVLHIIAVISMVFSSIL | inactive |
| SCNAGVGSIS | -0.011 ± 0.46 |
| SCNGCSSMRDIFIFHGLLHN | 7.165 ± 0.033 |
| SCNQCYFFQEVKRSVLVIKT | 3.59 ± 0.066 |
| SCNQDYTDSLSRAELKVDSS | -1.07 ± 0.62 |
| SCQFWSTFCTSC | 0.378 ± 0.74 |
| SCRRADFGMAVVHSLLVCGE | 0.709 ± 0.66 |
| SCRRWHLFLGWCIDVVESIY | 1.56 ± 0.13 |
| SCSIPELNNEGIKVCFMNTE | 1.27 ± 0.13 |
| SCVVLNSYQCTAKRY | 0.284 ± 1.1 |
| SCYLVYEFLLTGVSWWQSRL | 0.794 ± 0.48 |
| SDAVSSILSFYRVPRAVGPE | inactive |
| SDCLGKSVVVYNLLGFGR | 4.791 ± 0.045 |
| SDCVTFATCWM | 0.096 ± 0.49 |
| SDDFTYSIYFMSWFFYGSYN | inactive |
| SDHLCRYV | -0.095 ± 1.1 |
| SDHMYMIFMTMFVVVSHWVI | -0.795 ± 0.76 |
| SDKGYCSTFNMRQALWDYGQ | 0.081 ± 1.1 |
